# Measurements published in the RNAGym collection of RNA variant scans (doi:10.1093/molbev/msab373).
# B1: Azoarcus group I ribozyme (parent)
# chain: GUGCCUUGCGCCGGGAAACCACGCAAGGGAUGGUGUCAAAUUCGGCGAAACCUAAGCGCCCGCCCGGGCGUAUGGCAACGCCGAGCCAAGCUUCGGCGCCUGCGCCGAUGAAGGUGUAGAGACUAGACGGCACCCACCUAAGGCAAACGCUAUGGUGAAGGCAUAGUCCAGGGAGUGGCGAAAGUCACACAAACCGG
# Variants of: B1
# Test: reverse-splicing fitness (ratio to wild type); higher = more active; in vitro selection; Mg2+ level not given
# In short: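 An in vitro group I ribozyme library with randomized positions was T7-transcribed and gel-purified. In triplicate, 10 pmol RNA in EPPS pH 7.5 was reacted with 50 pmoles of a 30-nt RNA substrate for 1 h at 37 °C across several added MgCl2 levels (1–48 mM), then stopped with EDTA. Products were reverse transcribed from a substrate-complementary primer, PCR-amplified and sequenced (HiSeq 4000). Fitness is a variant's read proportion after selection over that before, normalised to wild type.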
row,Variant,reverse-splicing fitness
1,GUGCCUUGCGCCGGGAAACCACGCAAGGGAUGGUGUCAAAUUCGGCGAAACCUAAGCGCCCGCCCGGGCGUAUGGCAACGCGGAGCCAAGCUUCGGCGCCUGCGCCGAUGAAGGUGUAGGGACUAGACGGCACCCACCUAAGGCAAACGUUAUGGUGAAGGCAUAGUCCAGGGAGAGGCGAAAGUCACACAAACCGG [C82G A120G C150U U176A],0.0117
2,GUGCCUUGCGCCGGGAAACCACGCAAGGGAUGGUGUCAAAUUCGGCGAAACCUAAGCGCCCGCCCGGGCGUAUGGCAACGCGGAGCCAAGCUUCGGCGCCUGCGCCGAUGAAGGUGUAGGGACUAGACGGCACCCACCUAAGGCAAACGUUAUGGUGAAGGCAUAGUCCAGGGAGCGGCGAAAGUCACACAAACCGG [C82G A120G C150U U176C],0.0192
3,GUGCCUUGCGCCGGGAAACCACGCAAGGGAUGGUGUCAAAUUCGGCGAAACCUAAGCGCCCGCCCGGGCGUAUGGCAACGCGGAGCCAAGCUUCGGCGCCUGCGCCGAUGAAGGUGUAGGGACUAGACGGCACCCACCUAAGGCAAACGUUAUGGUGAAGGCAUAGUCCAGGGAGGGGCGAAAGUCACACAAACCGG [C82G A120G C150U U176G],0.0083
4,GUGCCUUGCGCCGGGAAACCACGCAAGGGAUGGUGUCAAAUUCGGCGAAACCUAAGCGCCCGCCCGGGCGUAUGGCAACGCGGAGCCAAGCUUCGGCGCCUGCGCCGAUGAAGGUGUAGGGACUAGACGGCACCCACCUAAGGCAAACGCUAUGGUGAAGGCAUAGUCAAGGGAGUGGCGAAAGUCACACAAACCGG [C82G A120G C169A],0.0302
5,GUGCCUUGCGCCGGGAAACCACGCAAGGGAUGGUGUCAAAUUCGGCGAAACCUAAGCGCCCGCCCGGGCGUAUGGCAACGCGGAGCCAAGCUUCGGCGCCUGCGCCGAUGAAGGUGUAGGGACUAGACGGCACCCACCUAAGGCAAACGCUAUGGUGAAGGCAUAGUCAAGGGAGAGGCGAAAGUCACACAAACCGG [C82G A120G C169A U176A],0.0209
6,GUGCCUUGCGCCGGGAAACCACGCAAGGGAUGGUGUCAAAUUCGGCGAAACCUAAGCGCCCGCCCGGGCGUAUGGCAACGCGGAGCCAAGCUUCGGCGCCUGCGCCGAUGAAGGUGUAGGGACUAGACGGCACCCACCUAAGGCAAACGCUAUGGUGAAGGCAUAGUCAAGGGAGCGGCGAAAGUCACACAAACCGG [C82G A120G C169A U176C],0.0252
7,GUGCCUUGCGCCGGGAAACCACGCAAGGGAUGGUGUCAAAUUCGGCGAAACCUAAGCGCCCGCCCGGGCGUAUGGCAACGCGGAGCCAAGCUUCGGCGCCUGCGCCGAUGAAGGUGUAGGGACUAGACGGCACCCACCUAAGGCAAACGCUAUGGUGAAGGCAUAGUCAAGGGAGGGGCGAAAGUCACACAAACCGG [C82G A120G C169A U176G],0.00403
8,GUGCCUUGCGCCGGGAAACCACGCAAGGGAUGGUGUCAAAUUCGGCGAAACCUAAGCGCCCGCCCGGGCGUAUGGCAACGCGGAGCCAAGCUUCGGCGCCUGCGCCGAUGAAGGUGUAGGGACUAGACGGCACCCACCUAAGGCAAACGCUAUGGUGAAGGCAUAGUCGAGGGAGUGGCGAAAGUCACACAAACCGG [C82G A120G C169G],0.0529
9,GUGCCUUGCGCCGGGAAACCACGCAAGGGAUGGUGUCAAAUUCGGCGAAACCUAAGCGCCCGCCCGGGCGUAUGGCAACGCGGAGCCAAGCUUCGGCGCCUGCGCCGAUGAAGGUGUAGGGACUAGACGGCACCCACCUAAGGCAAACGCUAUGGUGAAGGCAUAGUCGAGGGAGAGGCGAAAGUCACACAAACCGG [C82G A120G C169G U176A],0.0234
10,GUGCCUUGCGCCGGGAAACCACGCAAGGGAUGGUGUCAAAUUCGGCGAAACCUAAGCGCCCGCCCGGGCGUAUGGCAACGCGGAGCCAAGCUUCGGCGCCUGCGCCGAUGAAGGUGUAGGGACUAGACGGCACCCACCUAAGGCAAACGCUAUGGUGAAGGCAUAGUCGAGGGAGCGGCGAAAGUCACACAAACCGG [C82G A120G C169G U176C],0.0324
11,GUGCCUUGCGCCGGGAAACCACGCAAGGGAUGGUGUCAAAUUCGGCGAAACCUAAGCGCCCGCCCGGGCGUAUGGCAACGCGGAGCCAAGCUUCGGCGCCUGCGCCGAUGAAGGUGUAGGGACUAGACGGCACCCACCUAAGGCAAACGCUAUGGUGAAGGCAUAGUCGAGGGAGGGGCGAAAGUCACACAAACCGG [C82G A120G C169G U176G],0.00375
12,GUGCCUUGCGCCGGGAAACCACGCAAGGGAUGGUGUCAAAUUCGGCGAAACCUAAGCGCCCGCCCGGGCGUAUGGCAACGCGGAGCCAAGCUUCGGCGCCUGCGCCGAUGAAGGUGUAGGGACUAGACGGCACCCACCUAAGGCAAACGCUAUGGUGAAGGCAUAGUCUAGGGAGUGGCGAAAGUCACACAAACCGG [C82G A120G C169U],0.0237
13,GUGCCUUGCGCCGGGAAACCACGCAAGGGAUGGUGUCAAAUUCGGCGAAACCUAAGCGCCCGCCCGGGCGUAUGGCAACGCGGAGCCAAGCUUCGGCGCCUGCGCCGAUGAAGGUGUAGGGACUAGACGGCACCCACCUAAGGCAAACGCUAUGGUGAAGGCAUAGUCUAGGGAGAGGCGAAAGUCACACAAACCGG [C82G A120G C169U U176A],0.0236
14,GUGCCUUGCGCCGGGAAACCACGCAAGGGAUGGUGUCAAAUUCGGCGAAACCUAAGCGCCCGCCCGGGCGUAUGGCAACGCGGAGCCAAGCUUCGGCGCCUGCGCCGAUGAAGGUGUAGGGACUAGACGGCACCCACCUAAGGCAAACGCUAUGGUGAAGGCAUAGUCUAGGGAGCGGCGAAAGUCACACAAACCGG [C82G A120G C169U U176C],0.024
15,GUGCCUUGCGCCGGGAAACCACGCAAGGGAUGGUGUCAAAUUCGGCGAAACCUAAGCGCCCGCCCGGGCGUAUGGCAACGCGGAGCCAAGCUUCGGCGCCUGCGCCGAUGAAGGUGUAGGGACUAGACGGCACCCACCUAAGGCAAACGCUAUGGUGAAGGCAUAGUCUAGGGAGGGGCGAAAGUCACACAAACCGG [C82G A120G C169U U176G],0.00492
